Publication PMC5391180

Molecular target: actin filaments of MCF-7 cells, marked by Lifeact-RFP (human (endogenous in MCF-7)) (UniProt P60709)
Assay: FRET or BRET

Chain of GFP-tagged nonmuscle myosin IIC1 (alternatively spliced isoform of nonmuscle myosin heavy chain IIC) (natural protein) (Q7Z406 2-1995): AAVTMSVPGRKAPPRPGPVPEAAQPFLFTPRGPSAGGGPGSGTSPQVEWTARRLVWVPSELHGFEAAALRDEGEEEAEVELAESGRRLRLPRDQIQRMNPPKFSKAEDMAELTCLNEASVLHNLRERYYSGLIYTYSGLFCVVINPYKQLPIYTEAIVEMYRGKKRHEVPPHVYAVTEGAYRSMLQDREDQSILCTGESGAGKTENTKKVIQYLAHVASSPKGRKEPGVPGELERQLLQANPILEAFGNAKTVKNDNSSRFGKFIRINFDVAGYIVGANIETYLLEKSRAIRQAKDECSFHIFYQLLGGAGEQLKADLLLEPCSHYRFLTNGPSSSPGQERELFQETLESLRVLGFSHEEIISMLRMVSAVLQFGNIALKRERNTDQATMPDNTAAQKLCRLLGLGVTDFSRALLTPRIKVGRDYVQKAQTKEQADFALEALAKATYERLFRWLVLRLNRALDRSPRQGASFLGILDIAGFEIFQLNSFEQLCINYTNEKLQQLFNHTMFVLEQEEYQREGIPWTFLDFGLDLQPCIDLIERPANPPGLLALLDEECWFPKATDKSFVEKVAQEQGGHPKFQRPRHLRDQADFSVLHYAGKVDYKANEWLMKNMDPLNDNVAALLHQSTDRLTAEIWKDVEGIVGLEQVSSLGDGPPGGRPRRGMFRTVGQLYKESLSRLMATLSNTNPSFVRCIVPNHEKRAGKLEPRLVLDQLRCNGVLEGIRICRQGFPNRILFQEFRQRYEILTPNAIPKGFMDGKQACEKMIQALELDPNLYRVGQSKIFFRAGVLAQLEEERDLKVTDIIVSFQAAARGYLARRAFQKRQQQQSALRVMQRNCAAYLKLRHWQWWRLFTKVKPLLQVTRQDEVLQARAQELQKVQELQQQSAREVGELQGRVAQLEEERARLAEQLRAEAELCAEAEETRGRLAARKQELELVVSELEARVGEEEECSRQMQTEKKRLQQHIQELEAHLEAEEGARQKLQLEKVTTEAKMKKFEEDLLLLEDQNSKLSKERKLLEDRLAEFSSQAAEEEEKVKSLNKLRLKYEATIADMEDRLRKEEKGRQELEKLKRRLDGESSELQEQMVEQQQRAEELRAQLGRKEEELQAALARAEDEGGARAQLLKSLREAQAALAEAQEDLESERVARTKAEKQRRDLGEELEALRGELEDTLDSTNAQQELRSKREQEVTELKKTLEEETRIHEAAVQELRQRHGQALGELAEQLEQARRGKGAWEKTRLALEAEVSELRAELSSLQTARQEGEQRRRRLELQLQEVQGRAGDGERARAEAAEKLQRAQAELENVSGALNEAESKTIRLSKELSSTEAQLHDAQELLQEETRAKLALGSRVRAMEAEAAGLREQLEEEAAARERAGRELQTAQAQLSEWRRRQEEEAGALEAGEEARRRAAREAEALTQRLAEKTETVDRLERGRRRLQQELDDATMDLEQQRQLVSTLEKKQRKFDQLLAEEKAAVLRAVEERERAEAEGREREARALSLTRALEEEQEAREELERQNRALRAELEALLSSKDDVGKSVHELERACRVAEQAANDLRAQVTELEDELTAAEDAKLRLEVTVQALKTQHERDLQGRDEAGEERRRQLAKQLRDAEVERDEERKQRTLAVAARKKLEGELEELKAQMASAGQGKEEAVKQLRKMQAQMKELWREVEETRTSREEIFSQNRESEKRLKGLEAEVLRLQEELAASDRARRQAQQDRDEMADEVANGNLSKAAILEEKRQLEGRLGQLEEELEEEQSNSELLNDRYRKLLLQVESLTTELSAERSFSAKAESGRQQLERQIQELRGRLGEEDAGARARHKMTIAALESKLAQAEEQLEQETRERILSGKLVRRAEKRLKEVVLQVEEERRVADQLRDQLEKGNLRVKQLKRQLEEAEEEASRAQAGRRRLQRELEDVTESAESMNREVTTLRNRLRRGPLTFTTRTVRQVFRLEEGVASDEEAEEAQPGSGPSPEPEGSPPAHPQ

| dwell time tau, high-FRET state, bleb cortex [s] | shorter average dwell time tau1, high-FRET state, cell cortex [s] | longer average dwell time tau2, high-FRET state, cell cortex [s] | Substance |
| --- | --- | --- | --- |
| 46 | 33 |  | GFP-tagged nonmuscle myosin IIA (nonmuscle myosin heavy chain IIA, NMHC-IIA) (from UniProt P35579 1-1960) (natural protein) |
| 93 | 35 | 110 | GFP-tagged nonmuscle myosin IIB (nonmuscle myosin heavy chain IIB, NMHC-IIB) (from UniProt P35580 1-1976) (natural protein) |
|  | 35 |  | GFP-tagged nonmuscle myosin IIC1 (alternatively spliced isoform of nonmuscle myosin heavy chain IIC) (natural protein) |
